To fix the notation:
B1: glmS ribozyme (parent)
chain: AUAAAAGCGCCAGAACUACAGAAAUGUAGUUGACGAGGAGGAGGUUUAUCGAAUUUUCGGCGGAUGCCUCCAAA

Holding throughout (settings): with glucosamine-6-phosphate
Variants of B1 are the subject of series [1]. The series is described as follows: self-cleavage kobs at 640 uM GlcN6P; higher = faster cleavage; RNA array. In short, it runs like this:
(§1)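 Tiles of sequenced MiSeq chips were imaged over ~14 h at 37 °C. On them, barcoded ribozyme variants had been transcribed in situ by E. coli RNA polymerase and were tracked via a hybridised Cy3 probe while glucosamine-6-phosphate (40 μM to 10 mM) in HEPES/KCl/Mg(OAc)2 buffer flowed in. Per-tile medians, normalised to baseline and to non-cleaving reference variants, were fit to one- or two-exponential decays for kobs, and weighted Michaelis–Menten fits gave kcat and KM.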

The variants in series [2] derive from B1. As to the kind of experiment: self-cleavage kobs at 2500 uM GlcN6P; higher = faster cleavage; RNA array. In short, it runs like this: as §1
Series [3] covers variants of B1. The series is described as follows: self-cleavage kobs at 10000 uM GlcN6P; higher = faster cleavage; RNA array. In short, it runs like this:
as §1

± gives the standard error. Fewer inactive variants are shown than the library holds. A value given as a limit tells only on which side of the number the result lay.

In the case of A6G A33G U47A, in the series with glucosamine-6-phosphate [1], the “self-cleavage kobs at 640 uM GlcN6P” value was below 1e-05 s⁻¹.
With C34G G41U G51C C71G, the “self-cleavage kobs at 640 uM GlcN6P” value with glucosamine-6-phosphate [1] is below 1e-05 s⁻¹.
Same read-out and setting: then U30C U55A G60A C71A, with below 1e-05 s⁻¹.
As to A39U A52C A53G A64U, the “self-cleavage kobs at 640 uM GlcN6P” value in the series with glucosamine-6-phosphate [1] was below 1e-05 s⁻¹. For the same variant, the “self-cleavage kobs at 2500 uM GlcN6P” value with glucosamine-6-phosphate [2] is below 1e-05 s⁻¹.
As for C10U C11G G29U U30G G37C, the “self-cleavage kobs at 640 uM GlcN6P” value in the series with glucosamine-6-phosphate [1] is below 1e-05 s⁻¹.
With C16A G63U U69A, the “self-cleavage kobs at 640 uM GlcN6P” value with glucosamine-6-phosphate [1] was 0.000106 ± 3.1e-05 s⁻¹.
In the case of U31A A33U U55A C58G, the “self-cleavage kobs at 640 uM GlcN6P” value with glucosamine-6-phosphate [1] was below 1e-05 s⁻¹. The “self-cleavage kobs at 2500 uM GlcN6P” value with glucosamine-6-phosphate [2] was below 1e-05 s⁻¹.
With C10U A33U A36U G43U A53G C71U, in the series with glucosamine-6-phosphate [1], the “self-cleavage kobs at 640 uM GlcN6P” value was below 1e-05 s⁻¹. Also, in the series with glucosamine-6-phosphate [2], the “self-cleavage kobs at 2500 uM GlcN6P” value is below 1e-05 s⁻¹.
On to G13C G40U G60U, for which the “self-cleavage kobs at 640 uM GlcN6P” value with glucosamine-6-phosphate [1] is below 1e-05 s⁻¹. Besides, the “self-cleavage kobs at 10000 uM GlcN6P” value with glucosamine-6-phosphate [3] is below 1e-05 s⁻¹.
For C11G A39C C67G, in the series with glucosamine-6-phosphate [1], the “self-cleavage kobs at 640 uM GlcN6P” value was below 1e-05 s⁻¹. Also, the “self-cleavage kobs at 2500 uM GlcN6P” value with glucosamine-6-phosphate [2] was below 1e-05 s⁻¹.
As to A39G G41A U49C, in the series with glucosamine-6-phosphate [1], the “self-cleavage kobs at 640 uM GlcN6P” value was below 1e-05 s⁻¹.
On to G13U U69C, for which the “self-cleavage kobs at 640 uM GlcN6P” value with glucosamine-6-phosphate [1] stood at 7.4e-05 ± 2.2e-05 s⁻¹. In addition, the “self-cleavage kobs at 2500 uM GlcN6P” value with glucosamine-6-phosphate [2] amounted to 0.000149 ± 3e-05 s⁻¹. In addition, in the series with glucosamine-6-phosphate [3], the “self-cleavage kobs at 10000 uM GlcN6P” value stood at 0.00027 ± 7.1e-05 s⁻¹.
As to A12U A48C G51U C71U, in the series with glucosamine-6-phosphate [1], the “self-cleavage kobs at 640 uM GlcN6P” value was below 1e-05 s⁻¹.
With C16A G41A G43U C61G C68U, the “self-cleavage kobs at 640 uM GlcN6P” value with glucosamine-6-phosphate [1] is below 1e-05 s⁻¹. For the same variant, in the series with glucosamine-6-phosphate [2], the “self-cleavage kobs at 2500 uM GlcN6P” value was below 1e-05 s⁻¹.
With A14G A39U G41U G51A G59A, in the series with glucosamine-6-phosphate [1], the “self-cleavage kobs at 640 uM GlcN6P” value is below 1e-05 s⁻¹.
On to G7C G9U A39G U45A G59A G60A C67U C68U, for which, in the series with glucosamine-6-phosphate [1], the “self-cleavage kobs at 640 uM GlcN6P” value was below 1e-05 s⁻¹.
As for G37A A42C C61A, in the series with glucosamine-6-phosphate [1], the “self-cleavage kobs at 640 uM GlcN6P” value is below 1e-05 s⁻¹.
Turning to A42G A53U C67G, in the series with glucosamine-6-phosphate [1], the “self-cleavage kobs at 640 uM GlcN6P” value was found to be 0.00199 ± 0.00049 s⁻¹. In addition, in the series with glucosamine-6-phosphate [3], the “self-cleavage kobs at 10000 uM GlcN6P” value stood at 0.00458 ± 0.0017 s⁻¹.
For the variant A33C C50A C68A, in the series with glucosamine-6-phosphate [1], the “self-cleavage kobs at 640 uM GlcN6P” value was below 1e-05 s⁻¹. Moreover, the “self-cleavage kobs at 2500 uM GlcN6P” value in the series with glucosamine-6-phosphate [2] was below 1e-05 s⁻¹.
For the variant G13A C61U, the “self-cleavage kobs at 640 uM GlcN6P” value with glucosamine-6-phosphate [1] was below 1e-05 s⁻¹. In the series with glucosamine-6-phosphate [2], the “self-cleavage kobs at 2500 uM GlcN6P” value is below 1e-05 s⁻¹. In the series with glucosamine-6-phosphate [3], the “self-cleavage kobs at 10000 uM GlcN6P” value was below 1e-05 s⁻¹.
Consider G9U G38U C61U, for which the “self-cleavage kobs at 640 uM GlcN6P” value with glucosamine-6-phosphate [1] was below 1e-05 s⁻¹.
In the case of A14C U31G G32A C70G, the “self-cleavage kobs at 640 uM GlcN6P” value in the series with glucosamine-6-phosphate [1] was 6.55e-05 ± 1.4e-05 s⁻¹. Besides, the “self-cleavage kobs at 2500 uM GlcN6P” value with glucosamine-6-phosphate [2] was determined as 8.05e-05 ± 2e-05 s⁻¹.
Regarding A6U G29C A48U, the “self-cleavage kobs at 640 uM GlcN6P” value in the series with glucosamine-6-phosphate [1] was below 1e-05 s⁻¹.
Consider G37U G41A G63U A64G, for which the “self-cleavage kobs at 640 uM GlcN6P” value with glucosamine-6-phosphate [1] is below 1e-05 s⁻¹.
For the variant C8G A12U C70U, in the series with glucosamine-6-phosphate [1], the “self-cleavage kobs at 640 uM GlcN6P” value is below 1e-05 s⁻¹. The “self-cleavage kobs at 2500 uM GlcN6P” value with glucosamine-6-phosphate [2] was below 1e-05 s⁻¹.
As to G7U G32C C34U U55C, the “self-cleavage kobs at 640 uM GlcN6P” value with glucosamine-6-phosphate [1] is below 1e-05 s⁻¹. In the series with glucosamine-6-phosphate [2], the “self-cleavage kobs at 2500 uM GlcN6P” value was below 1e-05 s⁻¹.
For the variant C16U G66U C68G, the “self-cleavage kobs at 640 uM GlcN6P” value in the series with glucosamine-6-phosphate [1] was 0.000124 ± 4.1e-05 s⁻¹.
As to A6U G35A C70U, the “self-cleavage kobs at 640 uM GlcN6P” value with glucosamine-6-phosphate [1] is below 1e-05 s⁻¹.
As for A36G U49A G63U, the “self-cleavage kobs at 640 uM GlcN6P” value with glucosamine-6-phosphate [1] is below 1e-05 s⁻¹.
Consider A36C G43U G60U, for which the “self-cleavage kobs at 640 uM GlcN6P” value with glucosamine-6-phosphate [1] was below 1e-05 s⁻¹.
As to G38C C58A C71U, the “self-cleavage kobs at 640 uM GlcN6P” value in the series with glucosamine-6-phosphate [1] is below 1e-05 s⁻¹.
Regarding G51U G66A, in the series with glucosamine-6-phosphate [1], the “self-cleavage kobs at 640 uM GlcN6P” value is below 1e-05 s⁻¹. Moreover, in the series with glucosamine-6-phosphate [2], the “self-cleavage kobs at 2500 uM GlcN6P” value was below 1e-05 s⁻¹.
Turning to G44U U49C G62U, in the series with glucosamine-6-phosphate [1], the “self-cleavage kobs at 640 uM GlcN6P” value is below 1e-05 s⁻¹. The “self-cleavage kobs at 2500 uM GlcN6P” value in the series with glucosamine-6-phosphate [2] was below 1e-05 s⁻¹.
For C8U U31C U69A, the “self-cleavage kobs at 640 uM GlcN6P” value with glucosamine-6-phosphate [1] turned out to be 0.00179 ± 0.00081 s⁻¹.
In the case of A36C G43U U45G U46C U65G, the “self-cleavage kobs at 640 uM GlcN6P” value with glucosamine-6-phosphate [1] was below 1e-05 s⁻¹. The “self-cleavage kobs at 2500 uM GlcN6P” value with glucosamine-6-phosphate [2] was below 1e-05 s⁻¹.
